Biological target: GST-FKBP12
Test: AUC; sedimentation equilibrium of GST-FKBP12, seven serial two-fold dilutions from 320 µM, 3000-12 000 r.p.m., about 14 h, absorbance at 230 and 280 nm, Sedphat

**Q.** With GST-FKBP12 as the substance, how does the stoichiometry N read?
**A.** 2
